± gives the standard deviation of the averaged measurements.
What was measured:
Saccharomyces cerevisiae [1] = assay: protein stability index of tFT-peptide fusion (C-terminal peptide) (PSI (0-1 scale)); higher = more stable (slower turnover)
Protocol: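 MPS profiling in S. cerevisiae of the tFT-X12 degron library: putative degron peptides plus stable controls, 12 aa, fused to the C-terminus of a sfGFP-mCherry timer. Cells are FACS-sorted into 8 mCherry/sfGFP bins and deep-sequenced. PSI runs from 0 (unstable) to 1 (stable). Backgrounds are wild type, das1Δ and doa10Δ at 30 °C, and wild type, das1Δ, cdc34-1 and cdc53-1 at 37 °C; 2-3 technical replicates each.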

Saccharomyces cerevisiae [2] = assay: as above; settings: genetic background: wild type; temperature: 30 C
[3] = genetic background: cdc34-1, temperature: 37 C
[4] = genetic background: cdc53-1, temperature: 37 C
[5] = genetic background: das1 deletion, temperature: 30 C
[6] = genetic background: das1 deletion, temperature: 37 C
[7] = genetic background: doa10 deletion, temperature: 30 C
[8] = genetic background: wild type, temperature: 30 C
[9] = genetic background: wild type, temperature: 37 C
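Also: PSI is a weighted mean of sequencing reads over stability bins, variants kept only with over 10 reads, mCherry proximal and sfGFP distal, peptide attached via GGGS linker.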

Sequence | protein stability index (Saccharomyces cerevisiae [1]; [3]) | protein stability index (Saccharomyces cerevisiae [1]; [4]) | protein stability index (Saccharomyces cerevisiae [1]; [5]) | protein stability index (Saccharomyces cerevisiae [1]; [6]) | protein stability index (Saccharomyces cerevisiae [1]; [7]) | protein stability index (Saccharomyces cerevisiae [1]; [8]) | protein stability index (Saccharomyces cerevisiae [1]; [9]) | protein stability index (Saccharomyces cerevisiae [2])
TLPIWLRVLIFG | 0.341 ± 0.066 | 0.342 ± 0.038 | 0.295 ± 0.026 | 0.456 ± 0.0082 | 0.2762 ± 0.002 | 0.29 ± 0.0033 | 0.426 ± 0.014 | 0.404 ± 0.032
TLRINSPFYFLS | 0.694 ± 0.058 | 0.703 ± 0.02 | 0.654 ± 0.019 | 0.7509 ± 0.0024 | 0.242 ± 0.011 | 0.282 ± 0.022 | 0.53 ± 0.021 | 0.419 ± 0.012
TLWWRQPFWGFG | 0.731 ± 0.038 | 0.802 ± 0.0045 | 0.659 ± 0.013 | 0.8 ± 0.021 | 0.673 ± 0.0095 | 0.702 ± 0.013 | 0.781 ± 0.017 | 0.722 ± 0.042
TSRRPFVLVMWL | 0.504 ± 0.0061 | 0.599 ± 0.0078 | 0.405 ± 0.04 | 0.6229 ± 0.0049 | 0.363 ± 0.011 | 0.388 ± 0.035 | 0.576 ± 0.027 | 0.485 ± 0.015
TTATLSFAICAV | 0.412 ± 0.01 | 0.455 ± 0.012 | 0.315 ± 0.022 | 0.473 ± 0.0063 | 0.27 ± 0.0051 | 0.325 ± 0.022 | 0.452 ± 0.014 | 0.4276 ± 0.0029
TYKHIVRVNKCE | 0.594 ± 0.031 | 0.684 ± 0.021 | 0.627 ± 0.033 | 0.727 ± 0.0073 | 0.179 ± 0.0066 | 0.184 ± 0.025 | 0.286 ± 0.0033 | 0.318 ± 0.04
TYSVIPSLALLP | 0.664 ± 0.03 | 0.727 ± 0.013 | 0.643 ± 0.014 | 0.7298 ± 0.0043 | 0.648 ± 0.012 | 0.652 ± 0.032 | 0.704 ± 0.022 | 0.224 ± 0.051
VAGGFWCWGMVG | 0.718 ± 0.034 | 0.782 ± 0.015 | 0.663 ± 0.0093 | 0.788 ± 0.013 | 0.392 ± 0.016 | 0.436 ± 0.024 | 0.677 ± 0.024 | 0.4642 ± 0.0023
VARWVYALGLLC | 0.581 ± 0.035 | 0.6488 ± 0.0027 | 0.545 ± 0.028 | 0.677 ± 0.025 | 0.2 ± 0.0064 | 0.221 ± 0.011 | 0.377 ± 0.013 | 0.312 ± 0.013
VCCSILFSAFLV | 0.614 ± 0.088 | 0.6552 ± 0.0051 | 0.532 ± 0.019 | 0.653 ± 0.001 | 0.4 ± 0.024 | 0.4 ± 0.012 | 0.549 ± 0.013 | 0.475 ± 0.041
VCDPWVFIRCLV | 0.418 ± 0.015 | 0.57354 ± 0.00022 | 0.418 ± 0.031 | 0.6025 ± 0.0034 | 0.11 ± 0.0075 | 0.118 ± 0.032 | 0.104 ± 0.018 | 0.234 ± 0.1
VCLVAGVFFCLL | 0.5 ± 0.018 | 0.587 ± 0.025 | 0.44 ± 0.018 | 0.638 ± 0.021 | 0.422 ± 0.017 | 0.449 ± 0.014 | 0.575 ± 0.013 | 0.629 ± 0.24
VCVAVCFVMCGG | 0.36 ± 0.022 | 0.457 ± 0.023 | 0.324 ± 0.023 | 0.499 ± 0.018 | 0.276 ± 0.0083 | 0.305 ± 0.0087 | 0.464 ± 0.03 | 0.3721 ± 0.0011
VCVWVDILAFCS | 0.0795 ± 0.016 | 0.245 ± 0.097 | 0.183 ± 0.026 | 0.278 ± 0.0048 | 0.147 ± 0.019 | 0.174 ± 0.019 | 0.252 ± 0.018 | 0.227 ± 0.05
VDVWRWRGLRVG | 0.635 ± 0.029 | 0.73743 ± 0.00065 | 0.61 ± 0.013 | 0.7528 ± 0.00093 | 0.3592 ± 0.0023 | 0.414 ± 0.031 | 0.599 ± 0.0082 | 0.555 ± 0.11
VFAWSLYLRWAW | 0.2813 ± 0.0012 | 0.287 ± 0.0065 | 0.362 ± 0.025 | 0.411 ± 0.011 | 0.481 ± 0.02 | 0.357 ± 0.017 | 0.384 ± 0.0076 | 0.489 ± 0.015
VFFFNALFCFFC | 0.523 ± 0.039 | 0.51 ± 0.0085 | 0.535 ± 0.02 | 0.562 ± 0.0091 | 0.31138 ± 0.00022 | 0.291 ± 0.011 | 0.356 ± 0.0075 | 0.35 ± 0.0075
VFFSLSLILFPF | 0.431 ± 0.037 | 0.5265 ± 0.0017 | 0.412 ± 0.022 | 0.525 ± 0.024 | 0.3557 ± 0.00081 | 0.402 ± 0.019 | 0.4897 ± 0.0017 | 0.419 ± 0.013
VFFVLAVVGADA | 0.383 ± 0.044 | 0.461 ± 0.024 | 0.331 ± 0.033 | 0.551 ± 0.018 | 0.268 ± 0.0086 | 0.306 ± 0.02 | 0.467 ± 0.053 | 0.397 ± 0.045
VFLFSLLIVFFP | 0.213 ± 0.0089 | 0.3 ± 0.0087 | 0.226 ± 0.029 | 0.385 ± 0.00051 | 0.1951 ± 0.0019 | 0.216 ± 0.028 | 0.3338 ± 0.0025 | 0.219 ± 0.075

— the supplement of paper PMC10724198
